This experiment concerns the target human recombinant eL42-Δ(GGQTK) variant, His-tagged (human, UniProt P83881 1-106, Δ(GGQTK), residues 49-GGQTK-53 deleted). The experiment can be described thus: SPR; Biacore 3000; His-tagged eL42 species immobilised by amine coupling on a CM5 chip; eRF1 or EF-3 as analyte; 25°C, HBS-EP (10 mM HEPES pH 7.4, 150 mM NaCl, 3 mM EDTA, 0.005% P20), 5 µL/min; 1:1 Langmuir fit; mean of 3 experiments. The settings on record: both partners purified. In general terms: In SPR one partner is held on a chip, and binding of the other changes the refractive index at the surface.

For one molecule, Kd results are on record in article PMC5418926, “A Functional Role for the Monomethylated Gln-51 and Lys-53 Residues of the 49GGQTK53 Motif of eL42 from Human 80S Ribosomes” (The Open Biochemistry Journal, 2017).

The term Kd denotes the constant that tells how readily two partners part at equilibrium.

B1: elongation factor 3 (EF-3) from S. cerevisiae, His-tagged (natural protein, UniProt P16521 1-1044, looked up)
chain: MSDSQQSIKVLEELFQKLSVATADNRHEIASEVASFLNGNIIEHDVPEHFFGELAKGIKDKKTAANAMQAVAHIANQSNLSPSVEPYIVQLVPAICTNAGNKDKEIQSVASETLISIVNAVNPVAIKALLPHLTNAIVETNKWQEKIAILAAISAMVDAAKDQVALRMPELIPVLSETMWDTKKEVKAAATAAMTKATETVDNKDIERFIPSLIQCIADPTEVPETVHLLGATTFVAEVTPATLSIMVPLLSRGLNERETGIKRKSAVIIDNMCKLVEDPQVIAPFLGKLLPGLKSNFATIADPEAREVTLRALKTLRRVGNVGEDDAIPEVSHAGDVSTTLQVVNELLKDETVAPRFKIVVEYIAAIGADLIDERIIDQQAWFTHITPYMTIFLHEKKAKDILDEFRKRAVDNIPVGPNFDDEEDEGEDLCNCEFSLAYGAKILLNKTQLRLKRARRYGICGPNGCGKSTLMRAIANGQVDGFPTQEECRTVYVEHDIDGTHSDTSVLDFVFESGVGTKEAIKDKLIEFGFTDEMIAMPISALSGGWKMKLALARAVLRNADILLLDEPTNHLDTVNVAWLVNYLNTCGITSITISHDSVFLDNVCEYIINYEGLKLRKYKGNFTEFVKKCPAAKAYEELSNTDLEFKFPEPGYLEGVKTKQKAIVKVTNMEFQYPGTSKPQITDINFQCSLSSRIAVIGPNGAGKSTLINVLTGELLPTSGEVYTHENCRIAYIKQHAFAHIESHLDKTPSEYIQWRFQTGEDRETMDRANRQINENDAEAMNKIFKIEGTPRRIAGIHSRRKFKNTYEYECSFLLGENIGMKSERWVPMMSVDNAWIPRGELVESHSKMVAEVDMKEALASGQFRPLTRKEIEEHCSMLGLDPEIVSHSRIRGLSGGQKVKLVLAAGTWQRPHLIVLDEPTNYLDRDSLGALSKALKEFEGGVIIITHSAEFTKNLTEEVWAVKDGRMTPSGHNWVSGQGAGPRIEKKEDEEDKFDAMGNKIAGGKKKKKLSSAELRKKKKERMKKKKELGDAYVSSDEEF
notes: S. cerevisiae elongation factor 3; The expression strain was a gift of Maria Mateyak; also called eEF-3; yeast EF-3; source: E. coli TKBL40 (BL21, His-tagged eEF-3 in pET11a), purified (His GraviTrap)
As to B1, the Kd is 9.2 µM.
